{"source": "paper PMC10602602", "about": "“The apiosyltransferase celery UGT94AX1 catalyzes the biosynthesis of the flavone glycoside apiin” (Plant Physiology, 2023)", "proteins": {"B1": {"name": "AgApiT (UGT94AX1) (Apium graveolens) (protein)", "chain": "MGSENAKTRILMFPYLAYGHISPFVELAKQLTKRNFHIYLCSTPINLASVKKRADEDDNIQLLEFHLPSSPELPPRYHCSTGLPAELNPVLLRVFENAGPVFVDILKDIKPDLVIYDFMPSWPAQVALSLNIQVVYFSIFPVPMCCLPLHDSKRAGEKFPYQNVVIPQSPNRFALMASRNLLNCFEKTCKFALVKGLREVEGKYIDLLSDLADKDIIAVGPLVHVSMEKEDDKTKSILKWLDSKEKSSVVFVCFGSESYLSAEETIEMANALETTKCNFIWAMKFPQEKKDSVQLPDGFVERVGELGMILDGWVPQTMILGHPSTGVFLSHCGWSSVNESMKFGVPIIGMPMRYDLALIAKLVVEIGVGMEIVKNNQGKFDREGIVNVLRKVLEDGSEVKAKATELSLKINEKGEEDLDKAAEELMQICRNKKEIQG", "notes": "full ORF, codon-optimized synthetic gene, pCold ProS2, E. coli BL21(DE3); His/ProS2 tag cut off with HRV3C protease; 49 kDa"}, "B2": {"name": "AgApiT (UGT94AX1) (Apium graveolens; I139V) (protein)", "chain": "B1 chain with I139V", "notes": "as for B1"}, "B3": {"name": "AgApiT (UGT94AX1) (Apium graveolens; L356Q) (protein)", "chain": "B1 chain with L356Q", "notes": "as for B1"}}, "note": "Numbering of substitutions follows the chain as printed. Names and notes keep the numbering of the source.", "data": [{"substrate": "O=c1cc(-c2ccc(O)cc2)oc2cc(O[C@@H]3O[C@H](CO)[C@@H](O)[C@H](O)[C@H]3O)cc(O)c12", "assay": "reversed-phase HPLC glycosyltransferase assay, Michaelis-Menten nonlinear fit", "format": "biochemical, Apium graveolens", "settings": "donor UDP-Api, 200 mM Tris-HCl, 50 mM NaCl, pH 7.0, 23 °C", "description": "(§1) reversed-phase HPLC glycosyltransferase assay, Michaelis-Menten nonlinear fit on AgApiT (UGT94AX1)", "units": {"Km": "µM", "kcat": "s⁻¹", "kcat/Km": "M⁻¹ s⁻¹"}, "values": [{"protein": "B1", "Km": "15 ± 3", "kcat": "0.00088 ± 5e-05", "kcat/Km": "58 ± 15"}, {"protein": "B2", "Km": "17 ± 1", "kcat": "0.00083 ± 7e-05", "kcat/Km": "50 ± 18"}, {"protein": "B3", "Km": "52 ± 9", "kcat": "0.00021 ± 2e-05", "kcat/Km": "2.1 ± 0.3"}]}, {"substrate": "O=c1ccn([C@@H]2O[C@H](COP(=O)(O)OP(=O)(O)O[C@H]3OC[C@](O)(CO)[C@H]3O)[C@@H](O)[C@H]2O)c(=O)[nH]1", "assay": "reversed-phase HPLC glycosyltransferase assay, Michaelis-Menten nonlinear fit", "format": "biochemical, Apium graveolens", "settings": "acceptor apigenin 7-O-glucoside, 200 mM Tris-HCl, 50 mM NaCl, pH 7.0, 23 °C", "description": "as §1", "units": {"Km": "µM", "kcat": "s⁻¹", "kcat/Km": "M⁻¹ s⁻¹"}, "values": [{"protein": "B1", "Km": "8.6 ± 0.6", "kcat": "0.00065 ± 1e-05", "kcat/Km": "76 ± 6"}, {"protein": "B2", "Km": "17 ± 1", "kcat": "0.00047 ± 1e-05", "kcat/Km": "28 ± 3"}, {"protein": "B3", "Km": "390 ± 60", "kcat": "0.00014 ± 1e-05", "kcat/Km": "0.36 ± 0.08"}]}]}
